Results as given in patent US20240182536A1 (MURAL ONCOLOGY, published 2024).
Numbering of substitutions follows the chain as printed. Names and notes keep the numbering of the source.

T1: IL-18 receptors on HEK-Blue IL-18 reporter cells (UniProt Q13478 19-541; O95256 20-599, limits assumed)
T1 sequence (looked up) 1: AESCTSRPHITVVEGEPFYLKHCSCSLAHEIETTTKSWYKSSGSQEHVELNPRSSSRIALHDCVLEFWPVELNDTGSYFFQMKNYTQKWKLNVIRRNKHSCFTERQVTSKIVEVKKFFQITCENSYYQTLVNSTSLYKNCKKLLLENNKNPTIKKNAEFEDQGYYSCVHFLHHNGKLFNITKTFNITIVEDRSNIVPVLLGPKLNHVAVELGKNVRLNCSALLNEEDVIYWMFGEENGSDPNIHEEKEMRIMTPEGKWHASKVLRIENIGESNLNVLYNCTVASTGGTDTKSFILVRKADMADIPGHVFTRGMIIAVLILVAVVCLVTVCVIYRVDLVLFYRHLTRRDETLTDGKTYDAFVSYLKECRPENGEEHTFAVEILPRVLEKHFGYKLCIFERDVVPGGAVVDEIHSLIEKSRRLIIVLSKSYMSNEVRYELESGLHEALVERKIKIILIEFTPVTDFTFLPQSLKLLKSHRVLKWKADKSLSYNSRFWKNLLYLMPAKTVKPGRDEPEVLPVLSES
T1 sequence (looked up) 2: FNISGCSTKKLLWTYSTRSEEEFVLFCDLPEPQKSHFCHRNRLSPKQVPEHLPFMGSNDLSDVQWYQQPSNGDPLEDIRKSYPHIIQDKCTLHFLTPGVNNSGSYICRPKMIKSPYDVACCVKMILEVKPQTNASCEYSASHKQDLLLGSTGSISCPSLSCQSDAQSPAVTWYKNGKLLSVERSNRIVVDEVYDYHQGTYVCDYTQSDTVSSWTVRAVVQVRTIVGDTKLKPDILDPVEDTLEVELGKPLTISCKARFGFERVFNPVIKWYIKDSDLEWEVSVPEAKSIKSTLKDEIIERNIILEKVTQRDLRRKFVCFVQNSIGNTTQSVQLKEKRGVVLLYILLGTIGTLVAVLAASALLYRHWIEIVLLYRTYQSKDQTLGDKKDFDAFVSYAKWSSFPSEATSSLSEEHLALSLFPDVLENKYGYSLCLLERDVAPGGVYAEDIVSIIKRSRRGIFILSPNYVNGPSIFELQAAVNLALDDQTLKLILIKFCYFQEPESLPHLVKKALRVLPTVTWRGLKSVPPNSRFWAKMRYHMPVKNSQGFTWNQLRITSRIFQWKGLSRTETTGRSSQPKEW

T2: IL-18 binding protein (IL-18BP) (UniProt O95998 31-194)
T2 sequence (looked up): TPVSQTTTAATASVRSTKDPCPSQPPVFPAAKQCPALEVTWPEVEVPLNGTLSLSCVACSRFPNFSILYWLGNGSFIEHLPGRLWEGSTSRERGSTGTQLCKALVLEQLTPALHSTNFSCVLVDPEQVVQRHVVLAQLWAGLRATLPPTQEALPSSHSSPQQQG

T3: IL-18 receptors on HEK-Blue IL-18 reporter cells (UniProt Q13478 19-541; O95256 20-599, limits assumed)
T3 sequence (looked up) 1: T1 sequence (looked up) 1
T3 sequence (looked up) 2: T1 sequence (looked up) 2

T4: interleukin 18 binding protein (IL-18BP) (UniProt O95998 31-194)
T4 sequence (looked up): T2 sequence (looked up)

B1: IL-18 variant G3Q, E6N, K53T, D54A, N91K, R104P (ligand)
chain: YFQKLNSKLSVIRNLNDQVLFIDQGNRPLFEDMTDSDMRDNAPRTIFIISMYTASQPRGMAVTISVKSEKISTLSSENKIISFKEMNPPDKIKDTKSDIIFFQPSVPGHDNKMQFESSSYEGYFLASEKERDLFKLILKKEDELGDRSIMFTVQNED
B2: IL-18 variant E6T, D54P, S55K, R104S (ligand)
chain: B1 chain with Q3G, N6T, T53K, A54P, S55K, K91N, P104S
B3: IL-18 variant G3L, E6Q, T63S, N91L, R104P (ligand)
chain: B1 chain with Q3L, N6Q, T53K, A54D, T63S, K91L
B4: IL-18 variant G3P, E6D, K53T, D54N, T63A, N91T, R104P (ligand)
chain: B1 chain with Q3P, N6D, A54N, T63A, K91T
B5: IL-18 variant G3S, E6H, K53Y, D54P, S55Y, T63S, N91A, R104S (ligand)
chain: B1 chain with Q3S, N6H, T53Y, A54P, S55Y, T63S, K91A, P104S
B6: IL-18 variant G3P, E6S, K53N, D54Y, S55P, T63I, N91K, R104H (ligand)
chain: B1 chain with Q3P, N6S, T53N, A54Y, S55P, T63I, P104H
B7: IL-18 variant G3Q, E6H, S7Y, D23A, R27S, D54S, S55R, T63F, N91F, R104Q (ligand)
chain: B1 chain with N6H, S7Y, D23A, R27S, T53K, A54S, S55R, T63F, K91F, P104Q
B8: IL-18 variant G3L, E6Q, T63H, N91M, R104H (ligand)
chain: B1 chain with Q3L, N6Q, T53K, A54D, T63H, K91M, P104H
B9: IL-18 variant G3P, E6I, K53N, D54W, S55P, T63S, N91L, R104Q (ligand)
chain: B1 chain with Q3P, N6I, T53N, A54W, S55P, T63S, K91L, P104Q
B10: IL-18 variant K53D, S55Q, H109Y (ligand)
chain: B1 chain with Q3G, N6E, T53D, A54D, S55Q, K91N, P104R, H109Y
B11: IL-18 variant K53G, S55P, R104K, H109Y (ligand)
chain: B1 chain with Q3G, N6E, T53G, A54D, S55P, K91N, P104K, H109Y
B12: IL-18 variant S7Y, K53H, S55M (ligand)
chain: B1 chain with Q3G, N6E, S7Y, T53H, A54D, S55M, K91N, P104R
B13: IL-18 variant D23G, K53Y, S55Y (ligand)
chain: B1 chain with Q3G, N6E, D23G, T53Y, A54D, S55Y, K91N, P104R
B14: IL-18 variant K53Y, S55G, Q56H (ligand)
chain: B1 chain with Q3G, N6E, T53Y, A54D, S55G, Q56H, K91N, P104R
B15: IL-18 variant T34M, S36T, D37E, D40T, N41M, K53T, S55W (ligand)
chain: YFGKLESKLSVIRNLNDQVLFIDQGNRPLFEDMMDTEMRTMAPRTIFIISMYTDWQPRGMAVTISVKSEKISTLSSENKIISFKEMNPPDNIKDTKSDIIFFQRSVPGHDNKMQFESSSYEGYFLASEKERDLFKLILKKEDELGDRSIMFTVQNED
B16: IL-18 variant T34L, S36V, D40A, N41S, K53G, S55W (ligand)
chain: B15 chain with M34L, T36V, E37D, T40A, M41S, T53G

target: T1, IL-18 receptors on HEK-Blue IL-18 …; experiment: cell-based or functional assay

Binder	Activity, No BP, DF-100000	Activity, No BP, DF-500000	Activity, No BP, DF-2500000
B1	0.07	0.08	0.07
B2	0.17	0.09	0.1
B3	0.15	0.09	0.1
B4	0.07	0.07	0.07
B5	0.09	0.09	0.07
B6	0.07	0.07	0.07
B7	0.08	0.08	0.07
B8	0.16	0.09	0.11
B9	0.07	0.08	0.07

target: T2, IL-18 binding protein (IL-18BP); experiment: cell-based or functional assay

Binder	Activity, +100 nM BP, DF-1000002	Activity, +100 nM BP, DF-5000003	Activity, +100 nM BP, DF-25000004	Ratio (-BP/+BP), DF-1000005	Ratio (-BP/+BP), DF-5000006	Ratio (-BP/+BP), DF-25000007
B1	0.07	0.09	0.08	1.03	0.89	0.95
B2	0.18	0.09	0.08	0.98	0.99	1.3
B3	0.1	0.08	0.07	1.44	1.11	1.34
B4	0.07	0.08	0.07	0.95	0.92	1.01
B5	0.07	0.08	0.08	1.18	1.1	0.95
B6	0.07	0.07	0.07	1.03	0.94	0.95
B7	0.07	0.08	0.07	1.12	1.01	1.04
B8	0.08	0.07	0.07	2.02	1.16	1.47
B9	0.08	0.09	0.07	0.91	0.91	0.97

target: T3, IL-18 receptors on HEK-Blue IL-18 …; experiment: cell-based or functional assay

Binder	HEK-Blue activity, No BP, DF-10000	HEK-Blue activity, No BP, DF-100,000	HEK-Blue activity, No BP, DF-1,000,000
B10	0.23	0.2	0.13
B11	0.21	0.12	0.1
B12	0.21	0.14	0.18
B13	0.25	0.1	0.11
B14	0.26	0.15	0.11
B15	0.29	0.21	0.19
B16	0.22	0.19	0.14

target: T4, interleukin 18 binding protein (IL-18BP); experiment: cell-based or functional assay

Binder	HEK-Blue activity, +100 nM BP, DF-10000	HEK-Blue activity, +100 nM BP, DF-100,000	HEK-Blue activity, +100 nM BP, DF-1,000,000	Ratio (-BP/+BP), DF-10000	Ratio (-BP/+BP), DF-100,000	Ratio (-BP/+BP), DF-1,000,000
B10	0.12	0.15	0.1	1.94	1.36	1.27
B11	0.12	0.09	0.09	1.72	1.3	1.2
B12	0.16	0.15	0.18	1.33	0.94	0.98
B13	0.11	0.1	0.1	2.29	1.09	1.13
B14	0.3	0.21	0.18	0.86	0.7	0.63
B15	0.14	0.12	0.12	2.13	1.79	1.63
B16	0.12	0.12	0.14	1.81	1.6	0.97
